Reference: patent US9889184B2 (priority 2008, dated 2018)
No end group written: not given here.

Key:
Fusarium graminearum = type: cell-based; settings: for fungicidal activity in combination with NaD1: F. graminearum, conditions of the fungal bioassay; for fungicidal activity of the proteinase inhibitor on its own: not combined with NaD1, F. graminearum; for effect on hyphal growth: concentrations up to 18.5 uM in the absence of NaD1
[1] = test system: Fusarium oxysporum f. sp. vasinfectum (Fov); test: Growth inhibition of Fov by NaD1 (microtitre OD595); type: cell-based
Method: Lyophilized NaD1 (500 μg) was dissolved in 400 μL of stock buffer (200 mM Tris-HCl pH 8.0, 2 mM EDTA, 6 M guanidine-HCl, 0.02% [v/v] Tween-20). Reduction buffer (stock buffer with 15 mM dithiothreitol [DTT]) was added (44 μL) followed by a 4.5 h incubation at 40° C. The reaction mixture was cooled to RT before iodoacetic acid (0.5 M in 1 M NaOH, 55 μL) was added and the incubation continued in the dark for 30 min at RT. A Nanosep omega (Registered) spin column (3K molecular weight cut off, PALL Life Sciences) was used to remove salts, DTT and iodoacetic acid and the protein concentration was determined using the BCA protein assay (Pierce). The effect of reduced and alkylated NaD1 (NaD1R&A) on the growth of Fusarium oxysporum (Fov) was measured as described herein.
Antifungal activity against Fusarium oxysporum f. sp. vasinfectum (Fov, Australian isolate VCG01111 isolated from cotton; from Wayne O'Neill, Farming Systems Institute, DPI, Queensland, Australia), Thielaviopsis basicola (gift from David Nehl, NSW DPI, Narrabri, Australia), Verticillium dahliae (from Helen McFadden, CSIRO Plant Industry, Black Mountain, Australia), Leptosphaeria maculans (from Barbara Howlett, University of Melbourne, Victoria, Australia) and Aspergillus nidulans (from Michael Hynes, University of Melbourne) was assessed essentially as described in Broekaert et al, 1990. Spores were isolated from sporulating cultures growing in either half-strength potato dextrose broth (PDB) (Fov and T. basicola), Czapeck-Dox Broth (V. dahliae) (Difco Laboratories) or 10% (v/v) clarified V8 medium (L. maculans and A. nidulans) by filtration through sterile muslin. Spore concentrations were determined using a hemocytometer and adjusted to 5×10^4 spores/mL in the appropriate growth medium. Spore suspensions (80 μL) were added to the wells of sterile 96-well flat-bottomed microtitre plates along with 20 μL of filter-sterilized (0.22 μm syringe filter; Millipore) NaD1, or water to give final protein concentrations of 0-10 μM. The plates were shaken briefly and placed in the dark at 25° C. without shaking until the optical density at 595 nm of the water control reached approximately 0.2 (24-72 h depending on growth rate). Hyphal growth was estimated by measuring the optical density at 595 nm using a microtitre plate reader (SpectraMax Pro M2; Molecular Devices). Each test was performed in quadruplicate.

[2] = test system: Fusarium oxysporum species; settings: cited from earlier work
Fov hyphae = test: Uptake of NaD1 into hyphae (immunogold EM, bimane fluorescence, immunoblot); type: cell-based, Fusarium oxysporum f. sp. vasinfectum; settings: fluorescence microscopy, live hyphae
Method: Fov hyphae were grown as described above prior to the addition of NaD1 (10 μM final concentration) to 1 mL of the culture. Samples (100 μL) were collected after 0, 5, 10, 30, 60, 90 and 120 min. Hyphae were collected by centrifugation (10 min, 10,000×g) and the supernatant was stored at −20° C. for analysis. Hyphae were washed (2×10 min) with KCl (0.6 M) to remove any ionically bound protein before they were resuspended in 50 mM CAPS buffer (pH 10.0) containing 10 mM DTT for 20 min. Hyphae were collected by centrifugation and the supernatant, containing cell wall proteins, was collected for analysis. The pellet (containing cells) was resuspended in water and the cells were lysed using glass beads (Sigma, 60 mg) and vortexing (3×10 min). Cellular debris was removed by centrifugation (16,000×g, 10 min) and the supernatant collected for analysis. All samples were then analyzed by SDS-PAGE and immunoblotting.
Fov hyphae were grown for 18 h in half-strength PDB (5 mL) with vigorous shaking at 25° C. from a starting spore suspension of 5×10^4/mL. Hyphae were then treated with 2 μM NaD1 or an equivalent volume of water for 2 h at RT with gentle agitation, and were washed twice in 0.6 M KCl and three times in PBS before fixation in 4% (w/v) paraformaldehyde in PBS for 1 h at 4° C. Hyphae were again washed three times in PBS before dehydration in a standard ethanol series (15 min each, 50%, 70% and 90% ethanol, 3×15 min 100% ethanol). Hyphae were then infiltrated with LR White resin (ProSciTech) for 1 h at RT, followed by 18 h at 4° C., 1 h at RT and 24 h at 60° C. Fresh LR White resin was used at each step. Ultrathin sections were cut and placed on Formvar coated gold grids.
Grids were blocked with PBS containing 8% (w/v) BSA and 1% (v/v) Triton X-100 for 1 h and labeled with α-NaD1 antibodies (2 μg/mL in blocking buffer) for 1 h. Grids were washed in blocking buffer (3×10 min) and labeled with 15 nm gold particle labeled goat α-rabbit IgG antibodies (ProSciTech diluted 1 in 20 for 1 h. Grids were washed again in blocking solution (3×10 min) followed by water (15 min) before being air-dried. A JEOL JEM2010HC x e80 KV transmission electron microscope was used to examine labeled grids. Pictures were taken on Kodak EM film (ProSciTech) and developed in a dark room before scanning on a Hewlett Packard Scanjet 5P scanner.
Hyphae grown for 18 h as described were treated with NaD1-bimane (2 μM) for between 10 min and 6 h. Hyphae were then visualized by fluorescence microscopy using an MWU filter (excitation wavelength of 330-385 nm).

papain = biological target: T1, papain (Carica papaya, UniProt P00784); test: Cysteine proteinase inhibitory activity, ZFR-MCA substrate; type: biochemical; settings: bacterially expressed cystatin, FIG. 1D
T1 construct: purchased Sigma
T1 sequence (P00784 134-345): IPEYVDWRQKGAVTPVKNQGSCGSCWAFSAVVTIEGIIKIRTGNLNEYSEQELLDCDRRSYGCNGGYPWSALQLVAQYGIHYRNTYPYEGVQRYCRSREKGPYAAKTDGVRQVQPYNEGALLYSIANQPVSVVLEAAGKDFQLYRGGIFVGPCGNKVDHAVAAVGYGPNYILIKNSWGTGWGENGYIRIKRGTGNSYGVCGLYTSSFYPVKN
Method: (§1) The cysteine proteinase inhibitory activity of bacterially expressed NaCys1, NaCys3 and NaCys4 was determined using the enzymes papain and cathepsin L (Sigma). The assay mixtures (final volume 250 uL) contained papain or cathepsin L (50 nM final concentration), 100 uL of ZFR-MCA substrate (0.2 mM, Bachem, Melo et al., 2001), 100 uL of reaction buffer (0.2 M sodium acetate, 4 mM EDTA, 8 mM DTT, pH 5.5) and 50 uL of cystatin (for 0-20 uM final concentration). Released fluorescence was measured at 460 nm (excitation at 340 nm) after a 10 or 50 min incubation for papain and cathepsin L, respectively, at 37° C.

cathepsin L = biological target: T2, cathepsin L (Homo sapiens, UniProt P07711); test: as above; type: biochemical; settings: bacterially expressed cystatin, FIG. 1E
T2 construct: purchased Sigma
T2 sequence (P07711 114-333, species assumed): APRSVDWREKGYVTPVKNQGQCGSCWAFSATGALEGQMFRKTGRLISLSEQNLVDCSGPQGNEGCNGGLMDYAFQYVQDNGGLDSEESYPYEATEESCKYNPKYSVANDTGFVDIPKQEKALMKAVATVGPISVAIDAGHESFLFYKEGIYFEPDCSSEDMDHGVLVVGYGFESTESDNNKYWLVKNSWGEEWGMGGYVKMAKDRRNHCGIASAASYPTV
Method: as §1

CC(C)C[C@H](NC(=O)[C@H]1O[C@@H]1C(=O)O)C(=O)NCCCCN=C(N)N [E64, reference compound]
fungicidal activity in combination with NaD1 (Fusarium graminearum): no fungicidal activity | fungicidal activity of the proteinase inhibitor on its own (Fusarium graminearum): no fungicidal activity

NaD1 labeled with FITC: NaD1 labeled with FITC via reactive amine groups (RECKTESNTFPGICITKPPCRKACISEKFTDGHCSKILRRCLCTKPC; ends and bridges not checked; also: FITC label via reactive amine groups (position not given here); UniProt Q8GTM0 26-72, looked up)
antifungal activity of fluorophore-labeled NaD1 [1]: not biologically active

PhD1A: defensin isolated from petunia (Petunia hybrida) flowers (SEQ ID NO:24) (ATCKAECPTWDGICINKGPCVKCCKAQPEKFTDGHCSKILRRCLCTKPC; Petunia hybrida (PhD1A))
activity in inhibiting Fusarium oxysporum species [2]: active in inhibiting

NaD1-bimane: NaD1 labeled with the fluorophore bimane amine at carboxyl residues (RECKTESNTFPGICITKPPCRKACISEKFTDGHCSKILRRCLCTKPC; ends and bridges not checked; also: bimane amine fluorophore label at carboxyl residues (position not given here); UniProt Q8GTM0 26-72, looked up)
antifungal activity of fluorophore-labeled NaD1 [1]: retained full antifungal activity | time at which internalization was observed (Fov hyphae): 20 to 30 min

Tomdef2: defensin isolated from tomato flowers (SEQ ID NO:22) (QQICKAPSQTFPGLCFMDSSCRKYCIKEKFTGGHCSKLQRKCLCTKPC; Solanum lycopersicum var. cerasiforme (Tomdef2))
activity in inhibiting Fusarium oxysporum species [2]: active in inhibiting

B1: PhD2: plant defensin from Petunia hybrida, accession Q8H6Q0 (protein)
chain: MARSICFFAVAILALMLFAAYETEAGTCKAECPTWEGICINKAPCVKCCKAQPEKFTDGHCSKILRRCLCTKPCATEEATATLANEVKTMAEALVEEDMME
modifications: Petunia hybrida (PhD2Full length)
activity in inhibiting Fusarium oxysporum species [2]: active in inhibiting

B2: Soybean trypsin inhibitor Type II-S: serine proteinase inhibitor (21 kDa), Sigma T9128 (protein, UniProt P01070 25-205, looked up)
Trypsin inhibitor A: DFVLDNEGNPLENGGTYYILSDITAFGGIRAAPTGNERCPLTVVQSRNELDKGIGTIISSPYRIRFIAEGHPLSLKFDSFAVIMLCVGIPTEWSVVEDLPEGPAVKIGENKDAMDGWFRLERVSDDEFNNYKLVFCPQQAEDDKCGDIGISIDHDDGTRRLVVSKNKPLVVQFQKLDKESL
fungicidal activity in combination with NaD1 (Fusarium graminearum): no fungicidal activity | fungicidal activity of the proteinase inhibitor on its own (Fusarium graminearum): no fungicidal activity

B3: NaCys1: cystatin from Nicotiana alata, bacterially expressed (SEQ ID NO:2) (protein)
chain: MATLGGIREAGGSENSLEINDLARFAVDEHNKKQNALLEFGKVVNVKEQVVAGTMYYITLEATEGGKKKAYEAKVWVKPWQNFKQLEDFKLIGDAASA
modifications: Nicotiana alata (NaCys1)
inhibition of the cysteine proteinase papain (papain): strong inhibitors | inhibition of Cathepsin L (cathepsin L): better inhibitors of Cathepsin L than NaCys4 | effect on hyphal growth (Fusarium graminearum): no effect on hyphal growth

B4: NaCys3: cystatin from Nicotiana alata, bacterially expressed (SEQ ID NO:6) (protein)
chain: MANLGGIREAGGSENSLEINDLARFAVDEHNKKQNALLEFGKVVNVKEQVVAGTMYYITLEATEGGKKKAYEAKVWVKPWQNFKQLEDFKLIGDAASA
modifications: Nicotiana alata (NaCys3)
inhibition of the cysteine proteinase papain (papain): strong inhibitors | inhibition of Cathepsin L (cathepsin L): better inhibitors of Cathepsin L than NaCys4 | effect on hyphal growth (Fusarium graminearum): no effect on hyphal growth

B5: NaCys4: cystatin from Nicotiana alata (SEQ ID NO:8), tryptophan to arginine substitution at position 80 (protein)
chain: MANLGGIREAGGSENSLEINDLARFAVDEHNKKQNALLEFGKVVNVKEQVVAGTMYYITLEATEGGKKKAYEAKVWVKPRQNFKQLEDFKLIGDAASA
modifications: Nicotiana alata (NaCys4)
inhibition of the cysteine proteinase papain (papain): relatively poor inhibitor

B6: chicken egg white cystatin: cysteine proteinase inhibitor (12.7 kDa), Sigma C8917 (protein, UniProt P01038 24-139, looked up)
Cystatin: SEDRSRLLGAPVPVDENDEGLQRALQFAMAEYNRASNDKYSSRVVRVISAKRQLVSGIKYILQVEIGRTTCPKSSGDLQSCEFHDEPEMAKYTTCTFVVYSIPWLNQIKLLESKCQ
fungicidal activity in combination with NaD1 (Fusarium graminearum): no fungicidal activity | fungicidal activity of the proteinase inhibitor on its own (Fusarium graminearum): no fungicidal activity
